Values of other authors in patent US7435406B2, “Methods for conducting metabolic analyses” (Target Discovery, Inc., priority 1999, dated 2008).

Conditions: protein standards obtained from Sigma-Aldrich

Row | Molecule | pl
1 | Carbonic anhydrase II: protein standard from Sigma-Aldrich, Cat # T 6522 | 4.5
2 | Bovine ribonuclease A: protein standard from Sigma-Aldrich, Cat # R 5503 (protein, UniProt P61823 27-150, looked up) Ribonuclease pancreatic: KETAAAKFERQHMDSSTSAASSSNYCNQMMKSRNLTKDRCKPVNTFVHESLADVQAVCSQKNVACKNGQTNCYQSYSTMSITDCRETGSSKYPNCAYKTTQANKHIIVACEGNPYVPVHFDASV | 9.6
